In the nanobody polyreactivity screen of Harvey et al. (2022):

Experiment: yeast display, Sf9 membrane polyspecificity reagent, FACS + sequencing; frameworks hold sequencing errors
Method in brief: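 After 36–48 hours of galactose induction, yeast (Saccharomyces cerevisiae BJ5465) displaying a synthetic nanobody library were stained at 4 °C for 1 hour with 10% biotinylated, detergent-solubilized Sf9 membrane reagent. Streptavidin microbeads enriched the stained cells before FACS sorting into low and high (top ~1%) gates on anti-HA and streptavidin fluorescence. Each clone's polyreactivity label reflects its gate of origin.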

Sequence: QVHLVESGGGLVQARVSLRLSCAASGSTFFVYTMGWYRQAPGKETEFVATIRRGGNTYADSVKGRFTISRDNAKNSVYLQMNSLKPEDTAVYFCAVVVYQGFRSKYYYWGQGTQVTVSS
- polyreactivity (PSR sort gate): high polyreactivity

Sequence: QVQLVESGGGLVQAGGSLRLSCAASGSTFVPYAMGWYRQAPGKERELVAAISGTGGRTSYADSVKGRFTISRDNAKNTVYLQMNSLKPEDTAVYYCAAADGIYARYFFSRFPRFDYWGQGTQVTVSS
- polyreactivity (PSR sort gate): low polyreactivity

Sequence: QVQLVESGGGLVQAGGSLRLSCAASGSISPANTMGWYRQAPGKEREFVAGISRRGGRTYYADSVKGRFTISRDNAKNTVYLQMNSLIPEDTAVYYCATALIVRGPSRYEYWGQGTQVTVSS
- polyreactivity (PSR sort gate): high polyreactivity

Sequence: QVQLVESGGGLVQAGGSLRLSCAASGRIFGFYVMGWYRQAPGKERELVAAISSRGGSTYYADSVKGRFTISRDNAKNTVYLQMNSLKPEDTAVYYCAASVYREYYDNDDYWGQGTQVTVSS
- polyreactivity (PSR sort gate): high polyreactivity

Sequence: QVQLVESGGGLVQAGGSLRLSCAASGRIFSSYAMGWYRQAPGKERELVAAISGSGGRTYYADSVKGRFTISRDNAKNTVYLQMNSLKPEDTAVYYCNARRRSPYSTGVAYDYWGQGTQVTVSS
- polyreactivity (PSR sort gate): high polyreactivity

Sequence: QVQLVESGGGLVQAGGSLRLSCAASGRTFLVYAMGWYRQAPGKERELVAAITYSDGSTYYADSVKGRFTISRDNAKNTVYLQMNSLKPEDTAVYFCAADSSTFPSDYYWGKGTQVTVSS
- polyreactivity (PSR sort gate): low polyreactivity

Sequence: QVQIVESGGGLVQAGGSLSLICAASGFIIDDNTMGWYRQAPGKERELVAAISYSAGSTYYADSVKGRFTISRDNAKNTVFLQMISVKTEDTAVYYCAAQHYWVTSYLSSYDYWGQGTQVTVSS
- polyreactivity (PSR sort gate): low polyreactivity

Sequence: QVHLVESGGGLVQAGGSLRLSCAASGRIFAYNAMGWYRQAPGKERELVAAITSRGTSTYYADSVKGRFTISRDNAKNTVYLQMNSLKQEDTAVYYCNADYNRNSVQVSLYDYWGQGTQVTVSS
- polyreactivity (PSR sort gate): low polyreactivity

Sequence: HVQLVESGGGLVQAGGSLRLSCAASGRIFSVYAMGWYRQAPGKEWEFVAAITTNGGSTYYADSVKGRFTISRDNAKNTVYLQMNSLKPEDTAVYYCAAYRSRVNGYRVDYWGQGTQVTVSS
- polyreactivity (PSR sort gate): high polyreactivity

Sequence: QVQLVESGGGLVQAGGSLRLSCASSGRIFGSYAMGWYRQAPGKERELVAAISWRGTSTYYADSVKGRFTISRDNAKNTVYLQMNSLKPEDTAVYYCAARGLWPYDYWGQGTQVTVSS
- polyreactivity (PSR sort gate): low polyreactivity

Sequence: QVQLVESGGGLVQAGGSLRLSCAASGFIFRDNAMGWYRQAPGKERELVAASSSRGGSTYYADSVKGRFTISRDNAKNTVYLQMNSLKPEDTAVYYCAKRPYKYRVQLDSWGPGTQVTVSS
- polyreactivity (PSR sort gate): high polyreactivity

Sequence: QVKLVESGGGLVQAGGSLRLSCAASGSIFNTYVMGWYRQAPGKERELVAAITSSGGRTYYADSVKGRFTISRDNAKNTVYLQMNSLKPEDTAVYYCNTAQRWVGRNDYWGQGTQVTVSS
- polyreactivity (PSR sort gate): high polyreactivity

Sequence: QVQLVESVGGLVQAGGSLRLSCAASGITFTVYAMGWYRQAPGKERELVAAISSSGSTTYADSVKGRFTISRDNAKNTVYLQMNSLKPEDTAVYYCAAYSDYYLDQWYGYWGQGTQVTVSS
- polyreactivity (PSR sort gate): low polyreactivity

Sequence: QVQLVESGGGLVQAGGSLRLRCAASGSIFRVYAMGWYRQAPGKERELVATITWNGGSTYYADSVKGRFTISRDNAKNTVYLQMNSLKPEDTAVFYCAKPSSWRRVLPIDYWGQGTQVTVSS
- polyreactivity (PSR sort gate): low polyreactivity

Sequence: QVQLVESGGGLVQAGGSLRLSCAASGSIIGVNAMGWYRQAPGKERELVAAISSTGGSTYYADSVKGRFTLSRDNAKNTVYLQMNSLKPEDTAVYSCNTDYSKSIGDGYAGFDYWGQGTQVTVSS
- polyreactivity (PSR sort gate): low polyreactivity

Sequence: QVQLVESGGGLVQAGGSLRLSCAASGLTFKINAMGWYRQAPGKERELVAAIRSSGGRTYADSVKGRFTISRDNAKNTVYLQMNSLKPEDTAVYYCNKSPGYRSGRAVLYDYWGQGTQVTVSS
- polyreactivity (PSR sort gate): low polyreactivity

Sequence: QVQLVESGGGLVQAGGSLRLSCAASGSIFAYAMGWYRKAPGKEREFVAAISGGSTYYADSVKGRFTISRDNAKNTVYLQMNSLKPEDTAVYYCAADLDDERYYWGQGTQVTVSS
- polyreactivity (PSR sort gate): low polyreactivity

Sequence: QVQLVESGGGLVQAGGSLRISCAASGITFYGYAMGWYRQAPGKERELVATISKSGGITSYADSVKGRFSISRDNAKNTVYLQMNSLKPEETAVYYCNRGKSYGGYDYWGQGTQVTVSS
- polyreactivity (PSR sort gate): low polyreactivity

Sequence: QDQLVESGGGLVQAGGSLRLSCAASGRTFDSYAMGWYRQAPGKERELVAAIDADSVKGRFTISRDNAKNTVYLQMNSLKPEVTAVYYCAKPSRWGWTGFYAYEYWGQGTQVTVSS
- polyreactivity (PSR sort gate): low polyreactivity

Sequence: QVQLVESGGGLVQEGGSLRLSCAASGSIFVNNGMGWYRQAPGKERELVAAIRLSTGSTYYADSVKGRFTISRDNAKNTVYLQMNSLKPEDTAVYFCNAVRYPRLMYYWGQGTQVTVSS
- polyreactivity (PSR sort gate): high polyreactivity

Sequence: QVHQQESGGGLMQAGGSQRLSCAASGSISYYSDMGRYRQAPGKEREFVAGIGYGTTTNYADSVKGRFTTSRDNAKNTVYLQMISMKPEDNAVYYCAAYQGNGYEFYYWGQGTQVTVRS
- polyreactivity (PSR sort gate): low polyreactivity

Sequence: QDQLVESGGGLVQAGGSLRLSCAPSGFIFEYNAMGWYRQAPGKESELVADISFSGGSTYYADSVKVRFTISRDNAKNTVYLQMKSLKPEDTAGYYCAARALASVSAHKYDYWGQGTQVTVSS
- polyreactivity (PSR sort gate): low polyreactivity
